Laboratory results: patent publication US20170233472A1 (MacroGenics, published 2017)
Substitutions are numbered along the chain they refer to. Names and notes keep the numbering of the source.

Tests used:
[1] = molecular target: T1, human ROR1 expressed on the surface of cancer cells (human, UniProt Q01973 30-937); assay: cell-based or functional assay
[2] = molecular target: T2, His-tagged soluble human ROR1 (shROR1-His) (human, UniProt Q01973 30-406); assay: SPR (Biacore), diabody captured via anti-E/K-coil, shROR1-His as analyte
T2 construct: also called ROR1 protein; immobilized ROR1; not shown: His-Tag
Description: The binding kinetics of DART-1 to DART-6, DART-10 to DART-17, DART-20 to DART-33 was investigated using Biacore analysis in which ROR1 protein was passed over immobilized diabodies. Briefly, each diabody construct was captured on immobilized anti-E/K-coil surface and was incubated with shROR1-His at 25 and 100 nM, and the kinetics of binding were determined via Biacore analysis.

[3] = molecular target: T2, His-tagged soluble human ROR1 …; assay: sandwich ELISA: plate coated with shROR1-His, serial dilutions of diabody, bound diabody detected with biotinylated CD3 and streptavidin-HRP; abs @450nm
Description: (§1) The ability of the bispecific ROR1×CD3 two and three chain diabodies DART-1 and DART-A to bind both ROR1 and CD3 was examined by a sandwich ELISA. Briefly, microtiter plates were coated with shROR1-His, the plates were washed and incubated with three-fold serial dilutions of DART-1 or DART-A. The amount of diabody binding to the immobilized ROR1 was assessed using a biotinylated CD3 detected with Streptavidin-HRP. All samples were analyzed on a plate reader and binding curves generated. […] The cells were washed twice incubated with biotin-conjugated mouse anti-EK-coil antibody that recognizes the E-coil/K-coil (EK) heterodimerization region (100 μL of 1 μg/mL mixed with 1:500 diluted streptavidin-phycoerythrin) for 45 min. The cells were then washed and resuspended with FACS buffer, and analyzed with a BD FCS Canto II flow cytometer using FlowJo v10 software.

[4] = molecular target: T1, human ROR1 expressed on the surface of …; assay: cell-based or functional assay; remark: listed apart in the source
[5] = molecular target: T2, His-tagged soluble human ROR1 …; assay: SPR (BIACORE), trivalent binding molecule 6.25 to 100 nM passed over immobilized shROR1-His
Description: The binding kinetics of each of the ROR1×CD3×CD8 trivalent binding molecules to ROR1 was investigated using BIACORE® analysis in which each trivalent binding molecule (6.25 to 100 nM) was passed over immobilized shROR1-His essentially as described above.

[6] = molecular target: T2, His-tagged soluble human ROR1 …; assay: SPR (Biacore), shROR1-His captured on anti-PentaHis surface, diabody 6.25-100 nM as analyte
Description: The binding affinity of DART-1, DART-A, DART-B, and DART-C was investigated using Biacore analysis in which each diabody construct was passed over immobilized ROR1. Briefly, shROR1-His was captured on immobilized anti-PentaHis surface and was incubated with DART-1, DART-A, DART-B or DART-C at 6.25-100 nM, and the kinetics of binding was determined via Biacore analysis.

[7] = molecular target: T2, His-tagged soluble human ROR1 …; assay: sandwich ELISA: plate coated with shROR1-His, serial dilutions of diabody, bound diabody detected with biotinylated CD3 and streptavidin-HRP; y axis 'Mean Value'
Description: as §1

T1 sequence (Q01973 30-937): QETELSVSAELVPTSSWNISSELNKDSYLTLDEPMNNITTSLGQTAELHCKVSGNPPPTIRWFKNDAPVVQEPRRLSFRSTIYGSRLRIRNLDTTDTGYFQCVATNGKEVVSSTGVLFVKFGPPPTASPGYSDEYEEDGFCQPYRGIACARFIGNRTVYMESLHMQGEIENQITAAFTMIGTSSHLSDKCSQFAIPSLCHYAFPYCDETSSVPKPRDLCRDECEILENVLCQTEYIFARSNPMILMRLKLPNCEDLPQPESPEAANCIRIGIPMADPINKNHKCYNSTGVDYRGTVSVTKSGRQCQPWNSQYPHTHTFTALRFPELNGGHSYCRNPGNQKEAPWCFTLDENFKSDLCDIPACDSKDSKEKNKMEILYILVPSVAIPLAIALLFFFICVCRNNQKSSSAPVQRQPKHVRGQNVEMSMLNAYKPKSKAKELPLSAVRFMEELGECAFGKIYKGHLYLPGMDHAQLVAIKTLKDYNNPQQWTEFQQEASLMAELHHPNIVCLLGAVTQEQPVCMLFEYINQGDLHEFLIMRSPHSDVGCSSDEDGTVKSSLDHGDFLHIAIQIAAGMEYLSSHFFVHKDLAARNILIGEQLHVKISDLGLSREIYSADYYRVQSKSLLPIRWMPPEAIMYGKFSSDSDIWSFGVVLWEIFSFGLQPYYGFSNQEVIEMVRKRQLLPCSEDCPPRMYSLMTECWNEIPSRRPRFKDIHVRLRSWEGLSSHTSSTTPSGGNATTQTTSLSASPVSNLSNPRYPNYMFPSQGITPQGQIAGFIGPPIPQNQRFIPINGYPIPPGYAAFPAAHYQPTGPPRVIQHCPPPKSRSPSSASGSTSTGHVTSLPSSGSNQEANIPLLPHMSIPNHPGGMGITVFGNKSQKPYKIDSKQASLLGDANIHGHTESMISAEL
T2 sequence (Q01973 30-406): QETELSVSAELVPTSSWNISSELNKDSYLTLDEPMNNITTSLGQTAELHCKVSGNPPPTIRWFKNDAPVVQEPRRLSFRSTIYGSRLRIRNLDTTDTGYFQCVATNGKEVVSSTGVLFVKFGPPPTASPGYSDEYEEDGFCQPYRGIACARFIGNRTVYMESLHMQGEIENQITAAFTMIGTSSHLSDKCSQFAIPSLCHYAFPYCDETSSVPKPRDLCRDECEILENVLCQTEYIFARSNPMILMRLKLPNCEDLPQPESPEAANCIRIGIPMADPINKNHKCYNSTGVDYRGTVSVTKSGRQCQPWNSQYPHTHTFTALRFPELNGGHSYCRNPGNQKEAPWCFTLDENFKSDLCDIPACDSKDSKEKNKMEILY

B1: DART-1 (bispecific antibody)
chain 1: QLVLTQSPSASASLGSSVKLTCTLSSGHKTDTIDWYQQQPGKAPRYLMKLEGSGSYNKGSGVPDRFGSGSSSGADRYLTISSLQSEDEADYYCGTDYPGNYLFGGGTQLTVLGGGGSGGGGEVQLVESGGGLVQPGGSLRLSCAASGFTFSTYAMNWVRQAPGKGLEWVGRIRSKYNNYATYYADSVKGRFTISRDDSKNSLYLQMNSLKTEDTAVYYCVRHGNFGNSYVSWFAYWGQGTLVTVSSGGCGGGKVAALKEKVAALKEKVAALKEKVAALKE
chain 2: QAVVTQEPSLTVSPGGTVTLTCRSSTGAVTTSNYANWVQQKPGQAPRGLIGGTNKRAPWTPARFSGSLLGGKAALTITGAQAEDEADYYCALWYSNLWVFGGGTKLTVLGGGGSGGGGQEQLVESGGGLVQPGGSLRLSCAASGFTFSDYYMSWVRQAPGKGLEWVATIYPSSGKTYYADSVKGRFTISSDNAKNSLYLQMNSLRAEDTAVYYCARDSYADDAALFDIWGQGTTVTVSSGGCGGGEVAALEKEVAALEKEVAALEKEVAALEK
notes: VL: parental; VH: parental; also called ROR1×CD3 bispecific two chain diabody with parental anti-ROR1-VL and anti-ROR1-VH
[1]
  MR(%) (maximum response), redirected cell killing of HBL-2 cells (LDH release): 28.5%
  MR(%) (maximum response), redirected cell killing of JIMT-1 cells (LDH release): 42.4%
  MR(%) (maximum response), redirected cell killing of Jeko-1 cells (LDH release): 37.4%
[2]
  Kd: 4 nM
[3]
  EC50 (read off the curve): ~2 nM

B2: TRIDENT-A (other)
chain 1: QLVLTQSPSASASLGSSVKLTCTLSSGHKTDTIDWYQQQPGKAPRYLMKLEGSGSYNKGSGVPDRFGSGSSSGADRYLTISSLQSEDEADYYCGTDYPGNYLFGGGTQLTVLGGGGSGGGGEVQLVESGGGLVQPGGSLRLSCAASGFTFSTYAMNWVRQAPGKGLEWVGRIRSKYNNYATYYADSVKGRFTISRDDSKNSLYLQMNSLKTEDTAVYYCVRHGNFGNSYVSWFAYWGQGTLVTVSSASTKGEVAACEKEVAALEKEVAALEKEVAALEKGGGDKTHTCPPCPAPEAAGGPSVFLFPPKPKDTLMISRTPEVTCVVVDVSHEDPEVKFNWYVDGVEVHNAKTKPREEQYNSTYRVVSVLTVLHQDWLNGKEYKCKVSNKALPAPIEKTISKAKGQPREPQVYTLPPSREEMTKNQVSLWCLVKGFYPSDIAVEWESNGQPENNYKTTPPVLDSDGSFFLYSKLTVDKSRWQQGNVFSCSVMHEALHNHYTQKSLSLSPGK
chain 2: QAVVTQEPSLTVSPGGTVTLTCRSSTGAVTTSNYANWVQQKPGQAPRGLIGGTNKRAPWTPARFSGSLLGGKAALTITGAQAEDEADYYCALWYSNLWVFGGGTKLTVLGGGGSGGGGQEQLVESGGGLVQPGGSLRLSCAASGFTFSDYYMSWVRQAPGKGLEWVATIYPSSGKTYYADSVKGRFTISSDNAKNSLYLQMNSLRAEDTAVYYCARDSYADDAALFDIWGQGTTVTVSSASTKGKVAACKEKVAALKEKVAALKEKVAALKE
chain 3: DIQMTQSPSSLSASVGDRVTITCKGSQDINNYLAWYQQKPGKAPKLLIYNTDILHTGVPSRFSGSGSGTDFTFTISSLQPEDIATYYCYQYNNGYTFGCGTKVEIKGGGGSGGGGSGGGGSQVQLVESGGGVVQPGRSLRLSCAASGFTFSDFGMNWVRQAPGKCLEWVALIYYDGSNKFYADSVKGRFTISRDNSKNTLYLQMNSLRAEDTAVYYCAKPHYDGYYHFFDSWGQGTLVTVSSVEPKSADKTHTCPPCPAPEAAGGPSVFLFPPKPKDTLMISRTPEVTCVVVDVSHEDPEVKFNWYVDGVEVHNAKTKPREEQYNSTYRVVSVLTVLHQDWLNGKEYKCKVSNKALPAPIEKTISKAKGQPREPQVYTLPPSREEMTKNQVSLSCAVKGFYPSDIAVEWESNGQPENNYKTTPPVLDSDGSFFLVSKLTVDKSRWQQGNVFSCSVMHEALHNRYTQKSLSLSPGK
notes: parental anti-ROR1-VL/VH, CD3 mAb 1 (D65G), TRX2 (anti-CD8) as scFv-Fc third chain
[4]
  EC50 nM, redirected cell killing of Calu-3 cells by pan T-cells (LDH release): 0.0027 nM
  EC50 nM, redirected cell killing of JIMT-1 cells by pan T-cells (LDH release): 0.0022 nM
  EC50 nM, redirected cell killing of NCI-H1975 cells by pan T-cells (LDH release): 0.0039 nM
[5]
  Kd: 1.3 nM

B3: TRIDENT-C (other)
chain 1: QLVLTQSPSASASLGSSVKLTCTLSSGHKTDTIDWYQQQPGKAPRYLMKLEGSGSYNKGSGVPDRFSGSSSGADWYLTISSLQSEDEADYYCGTDYPGNYLFGGGTQLTVLGGGGSGGGGEVQLVESGGGLVQPGGSLRLSCAASGFTFSTYAMNWVRQAPGKGLEWVGRIRSKYNNYATYYADSVKGRFTISRDDSKNSLYLQMNSLKTEDTAVYYCVRHGNFGNSYVSWFAYWGQGTLVTVSSASTKGEVAACEKEVAALEKEVAALEKEVAALEKGGGDKTHTCPPCPAPEAAGGPSVFLFPPKPKDTLMISRTPEVTCVVVDVSHEDPEVKFNWYVDGVEVHNAKTKPREEQYNSTYRVVSVLTVLHQDWLNGKEYKCKVSNKALPAPIEKTISKAKGQPREPQVYTLPPSREEMTKNQVSLWCLVKGFYPSDIAVEWESNGQPENNYKTTPPVLDSDGSFFLYSKLTVDKSRWQQGNVFSCSVMHEALHNHYTQKSLSLSPGK
chain 2: B2 chain 2 with V155I, V182A, F186L, N195D, A215T
chain 3: B2 chain 3
notes: anti-ROR1-VL(14) and VH(8)
[5]
  Kd: 0.19 nM

B4: TRIDENT-D (other)
chain 1: B3 chain 1
chain 2: B2 chain 2 with V155I, V182A, F186L, N195D, A215T
heavy: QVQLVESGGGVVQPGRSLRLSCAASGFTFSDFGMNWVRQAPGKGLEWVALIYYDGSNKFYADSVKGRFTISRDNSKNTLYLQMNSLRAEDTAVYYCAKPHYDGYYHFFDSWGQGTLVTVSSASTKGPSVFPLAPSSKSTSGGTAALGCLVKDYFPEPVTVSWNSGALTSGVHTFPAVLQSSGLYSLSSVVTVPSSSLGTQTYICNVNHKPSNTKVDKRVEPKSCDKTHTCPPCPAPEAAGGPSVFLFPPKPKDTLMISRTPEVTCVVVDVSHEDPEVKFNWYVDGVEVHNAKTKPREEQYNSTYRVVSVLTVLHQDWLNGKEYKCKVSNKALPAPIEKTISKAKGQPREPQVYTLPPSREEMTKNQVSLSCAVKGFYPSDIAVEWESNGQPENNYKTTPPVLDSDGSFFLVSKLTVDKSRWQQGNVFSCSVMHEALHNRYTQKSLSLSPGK
light: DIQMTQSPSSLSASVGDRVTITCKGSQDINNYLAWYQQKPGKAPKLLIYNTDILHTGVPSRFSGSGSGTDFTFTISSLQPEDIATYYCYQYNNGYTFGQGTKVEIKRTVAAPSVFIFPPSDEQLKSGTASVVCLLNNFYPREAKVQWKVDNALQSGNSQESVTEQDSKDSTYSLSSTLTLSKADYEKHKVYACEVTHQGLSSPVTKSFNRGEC
[5]
  Kd: 0.26 nM

B5: TRIDENT-B (other)
chain 1: B2 chain 1
chain 2: B2 chain 2
heavy: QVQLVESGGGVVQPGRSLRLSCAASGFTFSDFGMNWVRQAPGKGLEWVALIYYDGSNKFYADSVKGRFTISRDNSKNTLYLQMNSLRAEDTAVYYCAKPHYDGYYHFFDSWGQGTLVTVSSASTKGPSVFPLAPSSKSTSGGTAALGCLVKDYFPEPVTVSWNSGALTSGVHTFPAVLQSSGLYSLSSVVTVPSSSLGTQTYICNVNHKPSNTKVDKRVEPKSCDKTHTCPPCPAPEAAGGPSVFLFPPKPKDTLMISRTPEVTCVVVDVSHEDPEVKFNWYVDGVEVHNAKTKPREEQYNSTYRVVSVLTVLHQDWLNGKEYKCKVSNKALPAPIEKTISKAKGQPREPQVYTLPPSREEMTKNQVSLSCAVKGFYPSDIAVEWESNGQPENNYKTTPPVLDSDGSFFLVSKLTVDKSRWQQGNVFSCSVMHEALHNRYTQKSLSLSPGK
light: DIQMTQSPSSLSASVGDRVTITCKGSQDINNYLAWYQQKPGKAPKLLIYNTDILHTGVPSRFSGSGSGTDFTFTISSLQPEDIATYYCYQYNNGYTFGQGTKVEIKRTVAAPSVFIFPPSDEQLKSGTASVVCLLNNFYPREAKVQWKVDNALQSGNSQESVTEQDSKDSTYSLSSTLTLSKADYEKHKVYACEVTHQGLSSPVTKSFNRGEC
notes: parental anti-ROR1-VL/VH, CD3 mAb 1 (D65G), TRX2 (anti-CD8) as Fab-type heavy and light chains
[4]
  EC50 nM, redirected cell killing of Calu-3 cells by pan T-cells (LDH release): 0.0044 nM
  EC50 nM, redirected cell killing of JIMT-1 cells by pan T-cells (LDH release): 0.0052 nM
  EC50 nM, redirected cell killing of NCI-H1975 cells by pan T-cells (LDH release): 0.0153 nM
[5]
  Kd: 1.6 nM

B6: DART-B (bispecific antibody)
chain 1: B3 chain 1 with W75R
chain 2: B2 chain 2
chain 3: not shown
notes: Three chain Fc Region-containing ROR1×CD3 diabody; VH: parental
[6]
  Kd: 0.65 nM

B7: DART-D (bispecific antibody)
chain 1: B3 chain 1
chain 2: B2 chain 2 with V155I, V182A, F186L, N195D, A215T
chain 3: not shown
notes: Three chain Fc Region-containing ROR1×CD3 diabody
[7]
  EC50 (read off the curve): ~1 nM
